Values quoted from earlier work as cited in publication PMC9731471.

Target: podoplanin (Homo sapiens) (UniProt Q86YL7)

Kd: 24 µM
Substance: CLEC-2 (from UniProt Q9P126)
